Our source for the INF-γ production by PHA blasts (ELISA, 36 hours) and proliferation of PHA blasts (MTT assay, 48 hours); lowest dose with an effect values is patent US5994104.

Experiment [1] has as its target IL-12 receptor.
Experiment [2] has as its target IL-12 receptor. This is another data set of the same source.

For the substance “recombinant IL-12 (from UniProt P29459) (ligand)”, the INF-γ production by PHA blasts (ELISA, 36 hours) with IL-12 receptor [1] amounted to 186 ng/mL. The proliferation of PHA blasts (MTT assay, 48 hours); lowest dose with an effect with IL-12 receptor [2] was 10 pg/mL.
